Assay results as given in patent publication US20260242483A1.

Experiments:
[1] = molecular target: human BTN3A as expressed on human cells (PBMC, Daudi, tumour cell lines, HUVEC, HEK293T WT) (human); test: cell-based or functional assay
[2] = molecular target: human BTN3A as expressed on human cells (PBMC, Daudi, tumour cell lines, HUVEC, HEK293T WT) (human); test: flow cytometry on human PBMCs
[3] = molecular target: human BTN3A as expressed on human cells (PBMC, Daudi, tumour cell lines, HUVEC, HEK293T WT) (human); test: flow cytometry on Daudi lymphoma cells
[4] = molecular target: cynomolgus BTN3A as expressed on cynomolgus PBMCs (cynomolgus monkey (Macaca fascicularis)); test: flow cytometry on cynomolgus PBMCs

B1: Chimeric 7.2 (VH0/Vκ0) (antibody, V domains shown)
VH: QVQLQQSGAELVKPGASVKLSCKASGYIFTRYYMYWVKQRPGQGLEWIGEINPNNGGTKFNEKFKNKATLTVDKFSSTAYMQLRSLTSEDSAVYYCSREDDYDGTPFAMDYWGQGTSVTVSS
VL: DIQMNQSPSSLSASLGDTITITCHASQNINVWLSWYQQKPGNIPKLLIYKASNLHTGVPSRFTGSGSGTGFTLTISSLQPEDIATYYCQQGQTYPYTFGGGTKLEIK
B1 showed a Functional assay (AML resistant) (γδT cell-based, EC50, µg/mL) [1] of 0.42 µg/mL, a Functional assay (AML sensitive) (γδT cell-based, EC50, µg/mL) [1] of 0.12 µg/mL and a Functional assay (Daudi) (γδT cell-based, EC50, µg/mL) [1] of 0.02 µg/mL. For the same binder, the EC50 [2] was 3.6 µg/mL, the EC50 [3] was 1.44 µg/mL and the EC50 [4] was 7.75 µg/mL.
